# Laboratory results published in doi:10.1101/629683.
# Target: mCh-vinT12-cBAK (constitutively active, opened form of full-length vinculin, mCherry-tagged, with cBAK) (gallus gallus) (UniProt P12003)
# Test: Fluorescence Loss After Photoactivation
# Chain of UniProt P12003 (P12003 whole entry): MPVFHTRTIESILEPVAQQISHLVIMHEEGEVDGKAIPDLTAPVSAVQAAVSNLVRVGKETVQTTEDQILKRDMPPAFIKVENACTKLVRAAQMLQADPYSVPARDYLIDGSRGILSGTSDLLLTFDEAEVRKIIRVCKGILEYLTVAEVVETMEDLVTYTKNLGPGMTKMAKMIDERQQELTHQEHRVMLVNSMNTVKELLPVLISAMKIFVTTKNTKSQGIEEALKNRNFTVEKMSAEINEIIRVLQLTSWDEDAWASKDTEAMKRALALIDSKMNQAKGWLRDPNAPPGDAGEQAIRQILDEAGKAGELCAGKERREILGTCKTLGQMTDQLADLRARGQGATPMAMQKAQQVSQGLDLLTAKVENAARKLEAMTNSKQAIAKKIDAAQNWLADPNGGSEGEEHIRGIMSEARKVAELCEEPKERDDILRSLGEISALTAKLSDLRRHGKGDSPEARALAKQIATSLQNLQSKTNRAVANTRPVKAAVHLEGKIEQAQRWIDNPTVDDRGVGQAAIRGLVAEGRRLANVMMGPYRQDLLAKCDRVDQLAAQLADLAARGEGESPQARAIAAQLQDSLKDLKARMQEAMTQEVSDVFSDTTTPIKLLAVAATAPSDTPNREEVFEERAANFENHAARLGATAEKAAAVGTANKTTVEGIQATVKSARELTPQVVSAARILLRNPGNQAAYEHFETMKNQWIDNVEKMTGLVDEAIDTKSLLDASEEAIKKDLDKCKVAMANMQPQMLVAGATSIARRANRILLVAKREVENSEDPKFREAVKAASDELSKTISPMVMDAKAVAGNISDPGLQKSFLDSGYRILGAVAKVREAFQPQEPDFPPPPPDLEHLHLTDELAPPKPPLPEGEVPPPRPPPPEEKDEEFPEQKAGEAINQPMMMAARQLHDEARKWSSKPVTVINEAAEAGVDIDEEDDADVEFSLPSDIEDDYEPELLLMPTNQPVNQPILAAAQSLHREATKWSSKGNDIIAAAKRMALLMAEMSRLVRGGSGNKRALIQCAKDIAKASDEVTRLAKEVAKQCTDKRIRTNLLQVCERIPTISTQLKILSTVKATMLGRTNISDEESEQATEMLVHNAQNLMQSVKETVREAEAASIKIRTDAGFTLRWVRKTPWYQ
substance,measurement,value
Photo-Activatable (PA) GFP-TalinFL (from UniProt P26039 1-2541) (natural protein),mobile fraction (Mf) in FLAP,< 20%
